Consider six molecules from patent US20180142018A1 (NOVIMMUNE, published 2018).

T1: human CD19 (human, UniProt P15391 20-556)
T1 construct: whole, on cells; also called huCD19
T1 sequence (looked up): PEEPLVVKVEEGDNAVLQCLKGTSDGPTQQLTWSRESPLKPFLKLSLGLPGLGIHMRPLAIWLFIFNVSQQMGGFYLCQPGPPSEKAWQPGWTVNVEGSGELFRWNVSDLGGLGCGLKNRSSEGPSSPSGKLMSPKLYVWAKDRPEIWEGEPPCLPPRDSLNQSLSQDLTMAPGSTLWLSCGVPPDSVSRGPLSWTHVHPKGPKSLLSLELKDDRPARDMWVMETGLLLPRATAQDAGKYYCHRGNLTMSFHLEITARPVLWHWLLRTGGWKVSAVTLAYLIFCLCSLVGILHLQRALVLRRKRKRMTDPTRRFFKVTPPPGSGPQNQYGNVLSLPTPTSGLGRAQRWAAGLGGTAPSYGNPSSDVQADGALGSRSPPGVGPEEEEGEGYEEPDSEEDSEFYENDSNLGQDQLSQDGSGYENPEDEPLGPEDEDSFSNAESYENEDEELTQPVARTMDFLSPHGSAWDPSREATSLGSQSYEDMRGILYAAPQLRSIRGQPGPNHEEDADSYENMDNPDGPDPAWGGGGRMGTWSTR

T2: cynomolgus CD19 (cynomolgus monkey, UniProt A0A2K5W8L9 20-557)
T2 construct: whole, on cells; also called cynoCD19; cynomolgus monkey CD19
T2 sequence: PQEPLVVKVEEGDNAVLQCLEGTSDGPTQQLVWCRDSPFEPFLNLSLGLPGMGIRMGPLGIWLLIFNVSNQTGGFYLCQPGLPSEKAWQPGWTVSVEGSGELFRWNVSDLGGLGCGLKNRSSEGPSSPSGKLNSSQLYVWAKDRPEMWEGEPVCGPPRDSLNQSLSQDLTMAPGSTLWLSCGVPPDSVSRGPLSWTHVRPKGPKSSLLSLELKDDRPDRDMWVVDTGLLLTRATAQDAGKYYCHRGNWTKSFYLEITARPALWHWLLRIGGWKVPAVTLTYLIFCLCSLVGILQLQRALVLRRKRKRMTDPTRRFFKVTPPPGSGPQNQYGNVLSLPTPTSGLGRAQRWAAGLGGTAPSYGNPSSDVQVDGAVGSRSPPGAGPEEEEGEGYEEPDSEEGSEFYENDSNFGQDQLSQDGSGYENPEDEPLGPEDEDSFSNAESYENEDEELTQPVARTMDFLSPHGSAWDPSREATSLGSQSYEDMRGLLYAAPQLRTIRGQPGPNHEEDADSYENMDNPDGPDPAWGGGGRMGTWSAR

B1: F6 antibody (antibody, human IgG1, V domains shown)
VH: EVQLVQSGAEVKKPGESLKISCKGSGYSFTSYWIGWVRQMPGKGLEWMGIIYPGDSDTRYSPSFQGQVTISADKSISTAYLQWSSLKASDTAMYYCARVWYYDFWSGADAFDIWGQGTLVTVSS
VL: EIVMTQSPATLSVSPGERATLSCRASQSVSSNLAWYQQKPGQAPRLLIYGASTRATGIPARFSGSGSGTEFTLTISSLQSEDFAVYYCQQGSLEAPQTFGQGTKVEIK
notes: also called human IgG1 F6 anti-CD19 antibody
B2: 7F1 antibody (antibody, human IgG1, V domains shown)
VH: EVQLVQSGAEVKKPGESLKISCKGSGYSFTSYWIGWVRQMPGKGLEWMGIIYPGDSDTRYSPSFQGQVTISADKSISTAYLQWSSLKASDTAMYYCARGDYWTGFAYWGQGTLVTVSS
VL: QSVLTQPPSVSAAPGQKVTISCSGSSSNIGNNYVSWYQQLPGTAPKLLIYDNNKRPSGIPDRFSGSKSGTSATLGITGLQTGDEADYYCGTWDLGWNSVFGGGTKLTVL
notes: also called human IgG1 7F1 anti-CD19 antibody
B3: 7F11 antibody (antibody, human IgG1, V domains shown)
VH: EVQLVQSGAEVKKPGESLKISCKGSGYSFTSYWIGWVRQMPGKGLEWMGIIYPGDSDTRYSPSFQGQVTISADKSISTAYLQWSSLKASDTAMYYCARGVSGIYNLHGFDIWGQGTLVTVSS
VL: DIQMTQSPSSLSASVGDRVTITCRASQSISSYLNWYQQKPGKAPKLLIYAASSLQSGVPSRFSGSGSGTDFTLTISSLQPEDFATYYCQQGMWDNPFTFGQGTKVEIK
notes: also called human IgG1 7F11 anti-CD19 antibody
B4: 9G8 antibody (antibody, human IgG1, V domains shown)
VH: B3 VH
VL: B3 VL with M92R, W93F, D94G, N95S
notes: also called human IgG1 9G8 anti-CD19 antibody
B5: 10D8 antibody (antibody, human IgG1, V domains shown)
VH: QVQLVQSGAEVKKPGSSVKVSCKASGGTFSSYAISWVRQAPGQGLEWMGGIIPIFGTANYAQKFQGRVTITADESTSTAYMELSSLRSEDTAVYYCARDRGYDYVWGSYRYGAFDIWGQGTLVTVSS
VL: QSALTQPASVSGSPGQSITISCTGTSSDVGGYNYVSWYQQHPGKAPKLMIYEVSNRPSGVSNRFSGSKSGNTASLTISGLQAEDEADYYCSSYDVWVPHMVFGGGTKLTVL
notes: also called human IgG1 10D8 anti-CD19 antibody
B6: 5F5 antibody (antibody, human IgG1, V domains shown)
VH: B3 VH with V100I
VL: B3 VL with G91A, M92S, W93L, N95S, F97L
notes: also called human IgG1 5F5 anti-CD19 antibody

Residue numbers refer to the chain shown, from its start.

One test has as its target T1, human CD19. Put plainly: FACS on human PBMC gated on CD20+ B lymphocytes, 30 and 3 µg/mL. The method, then:
(§1) The ability of various anti-CD19 antibodies of the disclosure to bind various peripheral blood mononuclear cells (PBMC). Human and cynomolgus PBMC from frozen aliquots in citrate buffer were tested. […] The PBMC were labelled with anti-CD20-PE monoclonal antibody (mAb), anti-CD14-FITC mAb, and anti-CD3-PerCP mAb cross-reactive both to human and cynomolgus species. Cell surface bound hIgG1 were detected with a mouse anti-human IgG Fc-APC mAb. FACS gating was performed with the anti-CD20 mAb for the B lymphocyte population, with the anti-CD3 for the T lymphocyte population and with anti-CD14 for the monocyte population.
For B1, the binding result was “binds”.

Regarding B2, the binding result was “binds”.

B3: the binding result is “binds”.

For the molecule B4, the binding result is on record as “binds”.

As to B5, the binding result was “binds”.

The target in a further test is T2, cynomolgus CD19. Put plainly: FACS on PBMC CD20+ B lymphocytes; human over cynomolgus, told of the group of anti-CD19 antibodies. Here is the method:
as §1
In the case of B1, the “fold higher binding on human than on cynomolgus PBMC” value (from here on “fold higher binding on human than”) was not above 10 fold.

For the molecule B3, the “fold higher binding on human than” value was not above 10 fold.

In the case of B4, the “fold higher binding on human than” value is not above 10 fold.

As for B6, the “fold higher binding on human than” value was not above 10 fold.

A further test addresses T1, human CD19. Put plainly: FACS on human B lymphocyte cell lines (Raji, Ramos, Nalm6, Su-DHL6, Su-DHL4, Mec2); binding lost on CD19-silenced Raji siRNA. Here is the method:
The ability of various anti-CD19 antibodies of the disclosure to bind various human B lymphocyte cell lines was evaluated. In particular, the human IgG1 5F5, 7F11, 9G8, F6, 7F1, and 10D8 anti-CD19 antibodies were evaluated for their abilities to bind (i) six human B lymphocyte cell lines: Raji, Ramos, Nalm6, Su-DHL6, Su-DHL4, and Mec2, (ii) a CD19 silenced B cell line: Raji siRNA; and a negative cell line (Jurkat). All incubations were prepared in FACS buffer (PBS, BSA 2%) at 4° C. Fc receptors on B cells were blocked with 10% mouse serum. Four doses of hIgG1 were tested: 10, 1, 0.1 and 0.01 μg/mL. Cell surface bound hIgG1 were detected with a mouse anti-human IgG Fc-PE mAb.
For B6, the binding result is listed as “binds”.
